Results reported in patent publication US7846202B2, “Coated implantable medical device” (Cook Incorporated, priority 1995, dated 2010).

Columns and labels:
[1] = In-vitro flow system perfusion of antibody-loaded stents (antibody remaining on stent); format: physicochemical; conditions: 10 ml/min, 1% BSA in PBS, after approximately 10 days perfusion
Procedure: In one example, device 10 is a stainless steel GR II™ stent in which the stainless steel base material 14 of structure 12 is coated with a polymer and, in particular, parylene. This adsorbent polymer layer 16 of parylene is approximately 230,000 Å thick. Bioactive material layer 18 of the antiplatelet GP IIb/IIIa antibody (AZ1) was passively loaded on adsorbent polymer layer 16. The polymer coated stainless steel stents were immersed for approximately 24 hours in a buffered aqueous solution of AZ1 antibody (1 mg/ml, pH=7.2) at 37° C. AZ1 is a monoclonal anti-rabbit platelet glycoprotein (GP) IIb/IIIa antibody.
In another example, c7E3 Fab as bioactive material layer 18 is attached to polymer coating layer 16. Bioactive material c7E3 Fab is a chimeric monoclonal antibody that acts upon the […] integrin on platelets to inhibit their aggregation. This antibody or receptor blocker may be used in humans intravenously to prevent thrombosis during coronary angioplasty. This receptor blocker is also known as ReoPro™ available from Eli Lilly, Indianapolis, Ind. Bioactive material layer 18 of the antiplatelet GP IIb/IIIa antibody (c7E3 Fab) was passively loaded on adsorbent polymer layer 16. […]

[2] = In vitro release rate of bioactive material from beneath porous parylene layer; format: physicochemical; conditions: dexamethasone layer over heparin layer, compared with the material alone
Procedure: When the at least one layer 18 of bioactive material contains a relatively soluble material such as heparin, the at least one layer 18 preferably contains a total of from about 0.1 to about 4 mg of bioactive material per cm^2 of the gross surface area of the structure 12. This provides a release rate for the heparin (measured in vitro) which is desirably in the range of 0.1 to 0.5 mg/cm^2 per day, and preferably about 0.25 mg/cm^2 per day, under typical blood flows through vascular stents. It should be noted that the solubility of dexamethasone may be adjusted as desired, with or without the inclusion of heparin, by mixing it with one or more of its relatively more soluble derivatives, such as dexamethasone sodium phosphate.
For example, when the structure 12 of the device 10 is configured as a vascular stent, it is advantageous for the at least one layer 18 to contain relatively soluble heparin, and the second layer 22 to contain relatively less soluble dexamethasone. […] More particularly, when dexamethasone is disposed by itself beneath a porous parylene layer 20 dimensioned as disclosed above, its release rate is negligible; an adequate release rate is obtained only when the thickness of the porous layer 20 is reduced by a factor of ten or more. […]

change of release rate in heparin/dexamethasone two-layer device [2] | Substance | fraction of loaded antibody remaining on the stent [1]
– | c7E3 Fab: chimeric monoclonal antibody that acts upon the […] integrin on platelets to inhibit their aggregation | approximately half
lowered | heparin | –
